The text below walks through data of US20190040368.

The target of this data set is T1, recombinant human iduronate-2 sulfatase (rhIDS).
T1 chain: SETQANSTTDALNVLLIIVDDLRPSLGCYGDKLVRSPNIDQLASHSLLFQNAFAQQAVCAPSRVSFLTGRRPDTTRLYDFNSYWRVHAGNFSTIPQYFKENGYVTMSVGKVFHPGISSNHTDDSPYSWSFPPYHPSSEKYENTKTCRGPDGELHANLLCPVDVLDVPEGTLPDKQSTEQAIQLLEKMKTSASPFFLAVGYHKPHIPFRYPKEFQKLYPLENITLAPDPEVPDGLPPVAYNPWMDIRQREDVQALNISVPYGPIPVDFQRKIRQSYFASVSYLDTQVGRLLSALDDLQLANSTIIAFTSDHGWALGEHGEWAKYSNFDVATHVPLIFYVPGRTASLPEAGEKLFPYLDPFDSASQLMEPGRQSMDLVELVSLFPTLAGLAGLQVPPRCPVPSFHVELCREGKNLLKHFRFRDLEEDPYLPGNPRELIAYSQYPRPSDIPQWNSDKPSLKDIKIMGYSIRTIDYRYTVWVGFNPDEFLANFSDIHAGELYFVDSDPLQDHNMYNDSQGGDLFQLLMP

B1: Human FGE fusion protein (Lip2pre-hFGE-HDEL) (protein)
chain: SQEAGTGAGAGSLAGSCGCGTPQRPGAHGSSAAAHRYSREANAPGPVPGERQLAHSKMVPIPAGVFTMGTDDPQIKQDGEAPARRVTIDAFYMDAYEVSNTEFEKFVNSTGYLTEAEKFGDSFVFEGMLSEQVKTNIQQAVAAAPWWLPVKGANWRHPEGPDSTILHRPDHPVLHVSWNDAVAYCTWAGKRLPTEAEWEYSCRGGLHNRLFPWGNKLQPKGQHYANIWQGEFPVTNTGEDGFQGTAPVDAFPPNGYGLYNIVGNAWEWTSDWWTVHHSVEETLNPKGPPSGKDRVKKGGSYMCHRSYCYRYRCAARSQNTPDSSASNLGFRCAADRLPTMDHDEL
On to B1, for which the “active rhIDS (4MU fluorogenic activity assay against sandwich ELISA), co-expression in Y. lipolytica” value (from here on “active rhIDS … in Y. lipolytica”) is listed as “All Y. lipolytica strains co-expressing rFGE with rhIDS resulted in the expression of active rhIDS”.

B2: Hemicentrotus pulcherrimus FGE fusion protein (Lip2pre-HpFGE-6HIS-HDEL) (protein)
chain: ENEDINQNISPTQSHTTATTEEELAEARGEEIDSDPTSEGSGAGEGCGCGSSALNRNHDEDALGLALEENLHDHVQEGAALKYSREANDPISMDHPEANVGAFPRTNQMNFIEGGTFRMGTDKAKIYLDGESPSRLVTLDPYYFDVYEVSNSEFELFVNTTSYITEAEKFGDSFVLEARISEEVKKDISQVVAAAPWWLPVKGAEWRHPEGPDSSISSRMDHPVTHISWNDATAYCQWAGKRLPTEAEWENAARGGLNNRLFPWGNKLMPKDHHRVNIWQGEFPKVNTAEDGYEGTCPVTAFEPNGYGLYNTVGNAWEWVADWWTTVHSPESQNNPVGPDEGTDKVKKGGSYMCHISYCYRYRCEARSQNSPDSSACNLGFRCAATNLPEDIPCSNCNDSTPHHHHHHHDEL
In the case of B2, the % FGly conversion (nano-LC MS); strain T148 (OXYY1801; HpFGE) was 8.1%; the % FGly conversion (nano-LC MS); strain T148 (OXYY1801; HpFGE) (20° C.) was 68.1%; the % FGly conversion (nano-LC MS); strain T148 (OXYY1801; HpFGE), duplicate amounted to 3.72%; the % FGly conversion-re-analyzed samples; DG29U7#7, OXYY1801; HpFGE is 19.2%. For the same protein, the % FGly conversion-re-analyzed samples; DG33U1#6, OXYY1801, HpFGE was 8.3%; the % FGly conversion-re-analyzed samples; DG33U3#6, OXYY1801; HpFGE (20° C.) is 84.5%; the “active rhIDS … in Y. lipolytica” value is reported as “All Y. lipolytica strains co-expressing rFGE with rhIDS resulted in the expression of active rhIDS”.

B3: Gallus gallus Lip2-GgFGE-His6-HDEL fusion construct (protein)
chain: GKETAPGGNCGCSASRSRGGEREAVATVRRYSAAANDGRSSGRGPMVAIPGGVFTMGTDEPEIQQDGEWPARRVHVNSFYMDQYEVSNQEFERFVNSTGYLTEAEKFGDSFVFEGMLSEEVKAEIHQAVAAAPWWLPVKGANWRQPEGPGSSILSRMDHPVLHVSWNDAVAFCTWAGKRLPTEAEWEYGCRGGLEKRLFPWGNKLQPKGQHYANIWQGVFPTNNTAEDGYKGTAPVTAFPPNGYGLYNIVGNAWEWTSDWWAVHHSADEAHNPKGPSSGTDRVKKGGSYMCHKSYCYRYRCAARSQNTPDSSASNLGFRCAADALPDPQHHHHHHHDEL
Regarding B3, the % activity of rhIDS; co-expression with GgFGE worked out at 33%.

B4: Monodelphis domestica Lip2-MdFGE-His6-HDEL fusion construct (protein)
chain: AARGLGSEAGSAAADAAHPAGTCGCGSPQRPGTAAHRYSREANVAEPASAERPVLTSQMAHIPAGVFTMGTDEPQIKQDGEGPARRVRINSFYMDLYEVSNAEFERFVNSTGYVTEAEKFGDSFVFDSMLSDQVKSDIHQAVAAAPWWLPVKGANWRHPEGPDSSILHRRDHPVLHVSWNDAVAYCTWAGKRLPTEAEWEYSCRGGLENRLFPWGNKLQPKGQHYANIWQGEFPVSNTGEDGYQGTAPVTAFPPNGYGLYNIVGNAWEWTSDWWTVHHSADETLDPKGPPSGSDRVKKGGSYMCHKSYCYRYRCAARSQNTPDSSASNLGFRCAADRLPDTHHHHHHHDEL
B4: the % activity of rhIDS; co-expression with MdFGE turned out to be 58%.

B5: Chimeric Lip2pre-BtFGE-HpFGE-6xHis-HDEL fusion construct (protein)
chain: MKLSTILFTACATLAAAAGGEEAGPEAGAPSLVGSCGCGNPQRPGAQGSSAAAHRYSREANAPGSVPGGRPSPPTKMVPIPAGVFTMGTDKAKIYLDGESPSRLVTLDPYYFDVYEVSNSEFELFVNTTSYITEAEKFGDSFVLEARISEEVKKDISQVVAAAPWWLPVKGAEWRHPEGPDSSISSRMDHPVTHISWNDATAYCQWAGKRLPTEAEWENAARGGLNNRLFPWGNKLMPKDHHRVNIWQGEFPKVNTAEDGYEGTCPVTAFEPNGYGLYNTVGNAWEWVADWWTTVHSPESQNNPVGPDEGTDKVKKGGSYMCHISYCYRYRCEARSQNSPDSSACNLGFRCAATNLPEDIPCSNCNDSTPHHHHHHHDEL
For the protein B5, the % active rhIDS (4MU activity against ELISA); 1 copy rhIDS, 2 copy ChFGE (POX/Hp4d)-20° C. stood at 0% and the % active rhIDS (4MU activity against ELISA); 1 copy rhIDS, 2 copy ChFGE (POX/Hp4d)-28° C. amounted to 0%.

B6: Lip2pre-6xHis-BtFGE-WBP1 fusion construct (protein)
chain: MKLSTILFTACATLAAAHHHHHHAGGEEAGPEAGAPSLVGSCGCGNPQRPGAQGSSAAAHRYSREANAPGSVPGGRPSPPTKMVPIPAGVFTMGTDDPQIKQDGEAPARRVAIDAFYMDAYEVSNAEFEKFVNSTGYLTEAEKFGDSFVFEGMLSEQVKSDIQQAVAAAPWWLPVKGANWRHPEGPDSTVLHRPDHPVLHVSWNDAVAYCTWAGKRLPTEAEWEYSCRGGLQNRLFPWGNKLQPKGQHYANIWQGEFPVTNTGEDGFRGTAPVDAFPPNGYGLYNIVGNAWEWTSDWWTVHHSAEETINPKGPPSGKDRVKKGGSYMCHKSYCYRYRCAARSQNTPDSSASNLGFRCAADHLPTTGADHLPTTGFTMLNPYYRLTLEQTGTTNFSAIYSTTFKIPDQHGVFTFNLDYKRPGYTFIEEKTRATIRHTANDEWPRSWEITNSWVYLTSAVMVVIAWFLFVVFYLFVGKADKEAVHKQ
Regarding B6, the % active rhIDS (4MU activity against ELISA); 1 copy rhIDS, 2 copy BtFGE-WBPI (POX/Hp4d) was 124%.

B7: Tupaia chinensis Lip2-TupFGE-His6-HDEL fusion construct (protein)
chain: EEARTGAGATSAQGPCGCGTPQRPGSHGSSAAAHRYSREANVPGPVPGERQPEATKMVPIPAGVFTMGTDDPQIKQDGEAPARRVAIDAFYMDAYEVSNAEFEKFVNSTGYLTEAEKFGDSFVFEGMLSEQVKTGIQQAVAAAPWWLPVKGANWRHPEGPDSTILHRADHPVLHVSWNDAVAYCTWAGKRLPTEAEWEYSCRGGLQNRLFPWGNKLQPRGQHYANIWQGEFPVTNTAEDGFQGTAPVDAFPPNGYGLYNIVGNAWEWTSDWWTVYHSVEETLNPKGPPSGKDRVKKGGSYMCHKSYCYRYRCAARSQNTPDSSASNLGFRCAADRLPTHHHHHHHDEL
With B7, the % activity of rhIDS; co-expression with TupFGE was determined as 51%.

B8: Streptomyces coelicolor FGE fusion protein (Lip2pre-ScFGE-6HIS-HDEL) (protein)
chain: MAVAAPSPAAAAEPGPAARPRSTRGQVRLPGGEFAMGDAFGEGYPADGETPVHTVRLRPFHIDETAVTNARFAAFVKATGHVTDAERFGSSAVFHLVVAAPDADVLGSAAGAPWWINVRGAHWRRPEGARSDITGRPNHPVVHVSWNDATAYARWAGKRLPTEAEWEYAARGGLAGRRYAWGDELTPGGRWRCNIWQGRFPHVNTAEDGHLSTAPVKSYRPNGHGLWNTAGNVWEWCSDWFSPTYYAESPTVDPHGPGTGAARVLRGGSYLCHDSYCNRYRVAARSSNTPDSSSGNLGFRCANDADLTSGSAAEHHHHHHHDEL
Regarding B8, the “active rhIDS … in Y. lipolytica” value was “All Y. lipolytica strains co-expressing rFGE with rhIDS resulted in the expression of active rhIDS”.

B9: Columba livia Lip2-C1FGE-His6-HDEL fusion construct (protein)
chain: MVVIPGGVFTMGTDEPAIQQDGEWPVRKVHVNSFYMDRYEVSNEDFERFVNSTGYVTEAEKFGDSFVFEGMLSEEVKAEIHQAVAAAPWWLPVKGANWKHPEGPDSNISNRMDHPVLHVSWNDAVAFCTWAGKRLPTEAEWEYSCRGGLENRLFPWGNKLQPKGQHYANIWQGVFPTNNTAEDGYKGTAPVTAFPPNGYGLYNIVGNAWEWTADWWAVHHSTEEVHNPKGPSSGTDRVKKGGSYMCHKSYCYRYRCAARSQNTPDSSASNLGFRCAADASPELPHHHHHHHDEL
B9: the % activity of rhIDS; co-expression with ClFGE was found to be 61%.

B10: MNS1-BtFGE-6xHis fusion construct (protein)
chain: MSFNIPKTTPNFSAKARKLEDQLWQASGLEKSKDSTLPLYKDKPYGEGFVARTTSGRRRRNIIYGVVVGLLFWAIYTFSRSLDGNVSLKDGIKDYEFKGWKGRGKPKTNWVAEQNAVKQAFVDSWNGYHKYAWGKDVYKPQTKTGKNMGPKPLGWFIVDSLDSGGEEAGPEAGAPSLVGSCGCGNPQRPGAQGSSAAAHRYSREANAPGSVPGGRPSPPTKMVPIPAGVFTMGTDDPQIKQDGEAPARRVAIDAFYMDAYEVSNAEFEKFVNSTGYLTEAEKFGDSFVFEGMLSEQVKSDIQQAVAAAPWWLPVKGANWRHPEGPDSTVLHRPDHPVLHVSWNDAVAYCTWAGKRLPTEAEWEYSCRGGLQNRLFPWGNKLQPKGQHYANIWQGEFPVTNTGEDGFRGTAPVDAFPPNGYGLYNIVGNAWEWTSDWWTVHHSAEETINPKGPPSGKDRVKKGGSYMCHKSYCYRYRCAARSQNTPDSSASNLGFRCAADHLPTTGADHLPTTGHHHHHH
On to B10, for which the “% FGly conversion; one copy of rhIDS and 2 copies of BtFGE-MNS1” value was found to be 100% FGly conversion; the % active rhIDS (4MU activity against ELISA); 1 copy rhIDS, 2 copy BtFGE-MNS1 (POX/Hp4d) is 98%; the “% activity of rhIDS; one copy of rhIDS and 2 copies of BtFGE-MNS1” value is recorded as 81.5% activity.
